Patent US20180030090A1 (AGENCY FOR SCIENCE TECHNOLOGY AND RESEARCH, published 2018)
Bridges are numbered along the chain shown (N, C = ends). [ ]: non-standard residue; d: D form. R8 = C=CCCCCCC[C@@](C)(N)C(=O)O; S5 = C=CCCC[C@](C)(N)C(=O)O; Ahx = NCCCCCC(=O)O

What was measured:
Mdm2 in murine T22 cells = Mdm2 in murine T22 cells (murine, UniProt P23804 1-489, limits assumed); assay: cell-based or functional assay
Mdm2 (1-125) = target: T1, Mdm2 (1-125) (UniProt Q00987 1-125); assay: competitive fluorescence anisotropy, displacement of FAM-labelled 12-1 peptide from Mdm2 (1-125); apparent Kd
T1 construct: range 1-125; also called N-terminal domain of Mdm2; Mdm2 (1 to 125)
T1 sequence (Q00987 1-125 limits assumed): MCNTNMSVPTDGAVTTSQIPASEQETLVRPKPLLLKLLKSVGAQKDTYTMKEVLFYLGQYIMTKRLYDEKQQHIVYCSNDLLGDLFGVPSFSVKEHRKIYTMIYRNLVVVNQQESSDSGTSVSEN
Experimental: All titrations were carried out in triplicate.

Sequence of Mdm2 in murine T22 cells (P23804 whole entry): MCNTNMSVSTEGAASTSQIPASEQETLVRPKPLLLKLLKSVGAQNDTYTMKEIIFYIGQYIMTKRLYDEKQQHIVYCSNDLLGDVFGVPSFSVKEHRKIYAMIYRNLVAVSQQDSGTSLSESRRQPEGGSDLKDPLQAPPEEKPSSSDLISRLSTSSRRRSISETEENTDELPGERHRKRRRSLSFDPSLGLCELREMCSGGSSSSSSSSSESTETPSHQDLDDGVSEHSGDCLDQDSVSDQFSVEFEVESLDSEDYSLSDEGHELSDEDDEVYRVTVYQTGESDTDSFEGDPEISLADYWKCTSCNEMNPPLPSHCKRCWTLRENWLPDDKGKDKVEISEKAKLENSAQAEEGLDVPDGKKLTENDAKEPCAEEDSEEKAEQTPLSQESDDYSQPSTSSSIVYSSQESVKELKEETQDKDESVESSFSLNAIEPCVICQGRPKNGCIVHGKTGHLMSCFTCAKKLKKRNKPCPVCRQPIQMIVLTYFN

| T22 IC50 (0% µM), T22 p53 reporter assay without serum (Mdm2 in murine T22 cells) [µM] | T22 Ic50 (10% µM), T22 p53 reporter assay with 10% fetal calf serum (Mdm2 in murine T22 cells) [µM] | Kd (Mdm2 (1-125)) [nM] | Binder |
| --- | --- | --- | --- |
| 2.75 | 17.9 | – | Ac-TSF[R8]EYWALL[S5]-NH2 (staple 4-11) [sMTide-02 (capped), Ac-TSFX8EYWALLS5-NH2] |
| ~0.78 | 9.95 | 24.4 | Ac-KK[Ahx]TSF[R8]EYWALL[S5]ENF-NH2 (staple 7-14) [YS-07 (capped), Ac-KK-Ahx-TSFX8EYWALLS5ENF-NH2] |
